Measured values: doi:10.1101/2025.08.31.673358

Biological target: Fragile X messenger ribonucleoprotein (FMRP) (human (endogenous in iPSC-derived NPCs)) (UniProt Q06787)
Test: co-IP

percent of input co-immunoprecipitated: 20%
Substance: histone H3 di-methylated at lysine 79 (H3K79me2) (from UniProt P68431 1-136) (natural protein)
